We go through 13 molecules from patent US20240247080A1, “GLP1/GIP/NPY2 RECEPTOR TRIPLE AGONISTS” (Boehringer Ingelheim International GmbH, priority 2022, published 2024).

Holding throughout (experiment): cell-based or functional assay
One assay addresses T1, human GIP receptor (human, UniProt P48546 22-466).
T1 sequence (looked up): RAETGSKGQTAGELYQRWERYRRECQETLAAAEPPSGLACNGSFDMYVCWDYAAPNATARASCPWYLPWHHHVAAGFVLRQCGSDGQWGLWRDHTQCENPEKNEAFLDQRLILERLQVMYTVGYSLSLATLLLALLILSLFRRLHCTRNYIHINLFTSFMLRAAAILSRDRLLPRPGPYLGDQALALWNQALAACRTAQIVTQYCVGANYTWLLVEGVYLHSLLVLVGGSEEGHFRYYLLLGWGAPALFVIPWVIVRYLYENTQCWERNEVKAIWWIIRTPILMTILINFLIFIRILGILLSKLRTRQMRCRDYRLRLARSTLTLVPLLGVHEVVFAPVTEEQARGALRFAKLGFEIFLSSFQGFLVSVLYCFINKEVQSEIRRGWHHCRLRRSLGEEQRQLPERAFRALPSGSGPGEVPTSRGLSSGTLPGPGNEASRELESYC

Assay [1] concerns the target T2, human neuropeptide Y2 receptor (human, UniProt P49146 1-381).
T2 sequence (looked up): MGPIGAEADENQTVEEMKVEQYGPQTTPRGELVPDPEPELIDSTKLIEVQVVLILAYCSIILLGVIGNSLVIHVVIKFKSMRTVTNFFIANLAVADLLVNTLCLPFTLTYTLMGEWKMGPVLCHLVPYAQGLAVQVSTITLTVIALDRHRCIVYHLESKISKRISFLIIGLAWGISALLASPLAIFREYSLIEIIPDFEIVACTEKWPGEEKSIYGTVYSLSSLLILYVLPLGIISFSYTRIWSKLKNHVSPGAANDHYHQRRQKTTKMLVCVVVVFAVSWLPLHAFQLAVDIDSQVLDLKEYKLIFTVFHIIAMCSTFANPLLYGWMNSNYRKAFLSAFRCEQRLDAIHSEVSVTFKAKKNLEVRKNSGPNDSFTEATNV

A further assay deals with human GLP-1 receptor (human, UniProt P43220 24-463).

Starred links: 1 amine or outer side, 2 acyl side, 3 side chain; linkers in the order of their positions; H or OH if unused. Non-standard residues stand in square brackets, D forms with d. Groups on a side chain read outwards from the residue. No end group written: not given here. *: point of attachment. C20 diacid = O=C(O)CCCCCCCCCCCCCCCCCCC(=O)*; C18 diacid = O=C(O)CCCCCCCCCCCCCCCCC(=O)*; γGlu = O=C(O)[C@H](CCC(=O)[*:2])N[*:1]; AEEA = NCCOCCOCC(=O)O; Aib = CC(C)(N)C(=O)O; Ahx = NCCCCCC(=O)O Where only a bound is given, the exact number is not on record here.

With Y[Aib]EGTFTSDYSI[Aib]LEKQAE[Aib]AFVEWLIK([γGlu-γGlu-γGlu-γGlu-C20 diacid])GGPSEGASLRHYYNWLTRQRY-NH2 (also: TFA salt) [Compound 280], in the assay with human GIP receptor, the “EC50 hGIPR 0.5% hP (CreLuc)” value was 0.38 nM and the “EC50 hGIPR 100% hP (CreLuc)” value was determined as 2.44 nM. For the same molecule, in assay [1], the “EC50 hNPY2R 0.5% hP (CreLuc)” value is 15.6 nM and the “EC50 hNPY2R 100% hP (CreLuc)” value stood at 91.4 nM. Further, in the assay with human GLP-1 receptor, the “EC50 hGLP1R 0.5% hP (CreLuc)” value amounted to 0.44 nM and the “EC50 hGLP1R 100% hP (CreLuc)” value amounted to 14.7 nM.

As for Y[Aib]EGTFTSDYSI[Aib]LEKQAQ[Aib]EFVEWLIK([γGlu-γGlu-γGlu-γGlu-C20 diacid])GGPSEGASLRHYYNWLTRQRY-NH2 (also: TFA salt) [Compound 271], in the assay with human GIP receptor, the “EC50 hGIPR 0.5% hP (CreLuc)” value was 0.62 nM and the “EC50 hGIPR 100% hP (CreLuc)” value was found to be 2.62 nM. Moreover, in assay [1], the “EC50 hNPY2R 0.5% hP (CreLuc)” value was found to be 16.1 nM and the “EC50 hNPY2R 100% hP (CreLuc)” value was determined as 80 nM. In addition, in the assay with human GLP-1 receptor, the “EC50 hGLP1R 0.5% hP (CreLuc)” value was 0.53 nM and the “EC50 hGLP1R 100% hP (CreLuc)” value came to 21.4 nM.

For Y[Aib]EGTFTSDYSI[Aib]LEKQAQ[Aib]EFVEWLIK([Ahx-γGlu-γGlu-γGlu-γGlu-γGlu-γGlu-C18 diacid])GGPSEGASLRHYYNWLTRQRY-NH2 (also: TFA salt) [Compound 279], in the assay with human GIP receptor, the “EC50 hGIPR 0.5% hP (CreLuc)” value was 0.71 nM and the “EC50 hGIPR 100% hP (CreLuc)” value turned out to be 1.76 nM. In assay [1], the “EC50 hNPY2R 0.5% hP (CreLuc)” value turned out to be 32.4 nM and the “EC50 hNPY2R 100% hP (CreLuc)” value stood at 103 nM. In addition, in the assay with human GLP-1 receptor, the “EC50 hGLP1R 0.5% hP (CreLuc)” value turned out to be 0.72 nM and the “EC50 hGLP1R 100% hP (CreLuc)” value came out at 13.4 nM.

For Y[Aib]EGTFTSDYSI[Aib]LEKQAQ[Aib]AFVQWLIK([Glu-Glu-Glu-Glu-C18 diacid])GGPSEGASLRHYYNWLTRQRY-NH2 (also: TFA salt) [Compound 281], in the assay with human GIP receptor, the “EC50 hGIPR 0.5% hP (CreLuc)” value came to 0.28 nM and the “EC50 hGIPR 100% hP (CreLuc)” value stood at 0.69 nM. Further, in assay [1], the “EC50 hNPY2R 0.5% hP (CreLuc)” value is 23 nM and the “EC50 hNPY2R 100% hP (CreLuc)” value came to 169 nM. Moreover, in the assay with human GLP-1 receptor, the “EC50 hGLP1R 0.5% hP (CreLuc)” value was found to be 0.07 nM and the “EC50 hGLP1R 100% hP (CreLuc)” value amounted to 1.78 nM.

In the case of Y[Aib]EGTFTSDYSI[Aib]LEKQAQ[Aib]EFVEWLIK([AEEA-AEEA-γGlu-γGlu-γGlu-C20 diacid])GGPSEGASLRHYYNWLTRQRY-NH2 (also: TFA salt) [Compound 273], in the assay with human GIP receptor, the “EC50 hGIPR 0.5% hP (CreLuc)” value was 0.38 nM and the “EC50 hGIPR 100% hP (CreLuc)” value turned out to be 1.52 nM. In assay [1], the “EC50 hNPY2R 0.5% hP (CreLuc)” value came out at 19.3 nM and the “EC50 hNPY2R 100% hP (CreLuc)” value amounted to 76.3 nM. Moreover, in the assay with human GLP-1 receptor, the “EC50 hGLP1R 0.5% hP (CreLuc)” value was 0.75 nM and the “EC50 hGLP1R 100% hP (CreLuc)” value was determined as 19.2 nM.

Take Y[Aib]EGTFTSDYSI[Aib]LEKQAQ[Aib]AFVQWLIK([AEEA-AEEA-γGlu-γGlu-γGlu-γGlu-C18 diacid])GGPSEGASLRHYYNWLTRQRY-NH2 (also: TFA salt) [Compound 270]: in the assay with human GIP receptor, the “EC50 hGIPR 0.5% hP (CreLuc)” value worked out at 0.12 nM and the “EC50 hGIPR 100% hP (CreLuc)” value is 0.71 nM. In addition, in assay [1], the “EC50 hNPY2R 0.5% hP (CreLuc)” value turned out to be 9.52 nM and the “EC50 hNPY2R 100% hP (CreLuc)” value turned out to be 21.1 nM. In addition, in the assay with human GLP-1 receptor, the “EC50 hGLP1R 0.5% hP (CreLuc)” value is 0.07 nM and the “EC50 hGLP1R 100% hP (CreLuc)” value came out at 1.69 nM.

With Y[Aib]EGTFTSDYSI[Aib]LEKQAQ[Aib]EFVEWLIK([AEEA-γGlu-γGlu-γGlu-C18 diacid])GGPSEGASLRHYYNWLTRQRY-NH2 (also: TFA salt) [Compound 274], in the assay with human GIP receptor, the “EC50 hGIPR 0.5% hP (CreLuc)” value is 0.23 nM and the “EC50 hGIPR 100% hP (CreLuc)” value was 1.78 nM. Also, in assay [1], the “EC50 hNPY2R 0.5% hP (CreLuc)” value came to 18.1 nM and the “EC50 hNPY2R 100% hP (CreLuc)” value amounted to 74.6 nM. Further, in the assay with human GLP-1 receptor, the “EC50 hGLP1R 0.5% hP (CreLuc)” value was found to be 0.41 nM and the “EC50 hGLP1R 100% hP (CreLuc)” value was found to be 17.6 nM.

B1: Compound 275 (peptide)
peptide: YXEGTFTSDYSIXLEKQAQXEFVEWLIKGGPSEGASLRHYYNWLTRQRY
modifications: Aib at 2, 13, 20; K28 side chain acylated with C20DA-gGlu-gGlu-gGlu-gGlu-gGlu-gGlu-eLys; C-terminal amide (NH2)
Turning to B1, in the assay with human GIP receptor, the “EC50 hGIPR 0.5% hP (CreLuc)” value came to 0.27 nM and the “EC50 hGIPR 100% hP (CreLuc)” value amounted to 1.75 nM. In addition, in assay [1], the “EC50 hNPY2R 0.5% hP (CreLuc)” value came out at 19.9 nM and the “EC50 hNPY2R 100% hP (CreLuc)” value came to 60 nM. Besides, in the assay with human GLP-1 receptor, the “EC50 hGLP1R 0.5% hP (CreLuc)” value was determined as 0.5 nM and the “EC50 hGLP1R 100% hP (CreLuc)” value was found to be 21.7 nM.

B2: Compound 277 (peptide)
peptide: YXEGTFTSDYSIXLEKQAQXAFVEWLIKGGPSEGASLRHYYNWLTRXRY
modifications: Aib at 2, 13, 20; bHGln (beta-homo-L-glutamine) at 47; K28 side chain acylated with C20DA-gGlu-gGlu-gGlu-gGlu-gGlu-gGlu-eLys; C-terminal amide (NH2)
For B2, in the assay with human GIP receptor, the “EC50 hGIPR 0.5% hP (CreLuc)” value came out at 0.11 nM and the “EC50 hGIPR 100% hP (CreLuc)” value was determined as 0.68 nM. For the same molecule, in assay [1], the “EC50 hNPY2R 0.5% hP (CreLuc)” value is > 99.9 nM and the “EC50 hNPY2R 100% hP (CreLuc)” value was determined as 1120 nM. Besides, in the assay with human GLP-1 receptor, the “EC50 hGLP1R 0.5% hP (CreLuc)” value worked out at 0.19 nM and the “EC50 hGLP1R 100% hP (CreLuc)” value stood at 1.29 nM.

As to Y[Aib]EGTFTSDYSI[Aib]LEKQAQ[Aib]EFVEWLIK([γGlu-γGlu-γGlu-γGlu-C18 diacid])GGPSEGASLRHYYNWLTRQRY-NH2 (also: TFA salt) [Compound 276], in the assay with human GIP receptor, the “EC50 hGIPR 0.5% hP (CreLuc)” value came out at 0.37 nM and the “EC50 hGIPR 100% hP (CreLuc)” value came to 1.82 nM. In assay [1], the “EC50 hNPY2R 0.5% hP (CreLuc)” value was 20.7 nM and the “EC50 hNPY2R 100% hP (CreLuc)” value was determined as 73.7 nM. Also, in the assay with human GLP-1 receptor, the “EC50 hGLP1R 0.5% hP (CreLuc)” value stood at 0.35 nM and the “EC50 hGLP1R 100% hP (CreLuc)” value came out at 16.7 nM.

With Y[Aib]EGTFTSDYSI[Aib]LEKQAE[Aib]AFVEWLIKGGPSEGASLRHYYNWLTRQRY-NH2 (not fully specified (residue 28); also: TFA salt) [Compound 278], in the assay with human GIP receptor, the “EC50 hGIPR 0.5% hP (CreLuc)” value worked out at 0.14 nM and the “EC50 hGIPR 100% hP (CreLuc)” value was found to be 1.38 nM. In assay [1], the “EC50 hNPY2R 0.5% hP (CreLuc)” value was found to be 17.5 nM and the “EC50 hNPY2R 100% hP (CreLuc)” value amounted to 88.6 nM. For the same molecule, in the assay with human GLP-1 receptor, the “EC50 hGLP1R 0.5% hP (CreLuc)” value was 0.56 nM and the “EC50 hGLP1R 100% hP (CreLuc)” value was found to be 13 nM.

Y[Aib]EGTFTSDYSI[Aib]LEKQAQ[Aib]EFVEWLIK([AEEA-AEEA-γGlu-C18 diacid])GGPSEGASLRHYYNWLTRQRY-NH2 (also: TFA salt) [Compound 282]: in the assay with human GIP receptor, the “EC50 hGIPR 0.5% hP (CreLuc)” value worked out at 0.17 nM and the “EC50 hGIPR 100% hP (CreLuc)” value is 1.03 nM. In assay [1], the “EC50 hNPY2R 0.5% hP (CreLuc)” value is 17.3 nM and the “EC50 hNPY2R 100% hP (CreLuc)” value is 71.4 nM. Moreover, in the assay with human GLP-1 receptor, the “EC50 hGLP1R 0.5% hP (CreLuc)” value was determined as 0.51 nM and the “EC50 hGLP1R 100% hP (CreLuc)” value came to 24.6 nM.

As for Y[Aib]EGTFTSDYSI[Aib]LEKQAQ[Aib]AFVEWLIK([γGlu-γGlu-γGlu-γGlu-C18 diacid])GGPEEGASLRHYYNWLTRQRY-NH2 (also: TFA salt) [Compound 272], in the assay with human GIP receptor, the “EC50 hGIPR 0.5% hP (CreLuc)” value stood at 0.24 nM and the “EC50 hGIPR 100% hP (CreLuc)” value came out at 3.01 nM. Also, in assay [1], the “EC50 hNPY2R 0.5% hP (CreLuc)” value is 23.8 nM and the “EC50 hNPY2R 100% hP (CreLuc)” value was found to be 113 nM. Besides, in the assay with human GLP-1 receptor, the “EC50 hGLP1R 0.5% hP (CreLuc)” value stood at 0.31 nM and the “EC50 hGLP1R 100% hP (CreLuc)” value stood at 15.6 nM.
